Assay results as given in US20020146750A1 (published 2002).

B1: 7D1 (Fab, V domains shown)
VH: QVQLVQSGGGLVQPGGSLRLSCAASGFTFRSNAMGWVRQAPGKGLEWVSGISGSGGSTYYADSVKGRFTISRDNSKNTLYLQMNSLRAEDTAVYYCAKHTGGGVWDPIKHWGQGTLVTVSS
VL: EIVLTQSPLSLPVTPGEPASISCRSSQSLLHSNGYTYLDWYLQKPGQSPQLLIYSGSHRASGVPDRFSGSVSGTDFTLRISRVEAEDVGVYYCMQGLQSPFTFGPGTKVDIKR
notes: PH1 Fab variant; also called clone 7D1
B2: 10F3 (Fab, V domains shown)
VH: QVQLVQSGGGLVQPGGSLRLSCAASGFTFRSNAMGWVRQAPGKGLEWVSGISGSGGSTYYADSVKGRFTISRDNSKNTLYLQMNSLRAEDTAVYYCAKHTGGGVWDPIVPWGQGTLVTVSS
VL: EIVLTQSPLSLPVTPGEPASISCRSSQSLLHSNGYTYLDWYLQKPGQSPQLLIYSGSHRASGVPDRFSGSVSGTDFTLRISRVEAEDVGVYYCMQGLQSPFTFGPGTKVDIKR
notes: PH1 Fab variant
B3: 10A9 (Fab, V domains shown)
VH: QVQLVQSGGGLVQPGGSLRLSCAASGFTFRSNAMGWVRQAPGKGLEWVSGISGSGGSTYYADSVKGRFTISRDNSKNTLYLQMNSLRAEDTAVYYCAKHTGGGVWDPIHNWGQGTLVTVSS
VL: EIVLTQSPLSLPVTPGEPASISCRSSQSLLHSNGYTYLDWYLQKPGQSPQLLIYSGSHRASGVPDRFSGSVSGTDFTLRISRVEAEDVGVYYCMQGLQSPFTFGPGTKVDIKR
notes: PH1 Fab variant
B4: 10E1 (Fab, V domains shown)
VH: QVQLVQSGGGLVQPGGSLRLSCAASGFTFRSNAMGWVRQAPGKGLEWVSGISGSGGSTYYADSVKGRFTISRDNSKNTLYLQMNSLRAEDTAVYYCAKHTGGGVWDPIAYWGQGTLVTVSS
VL: EIVLTQSPLSLPVTPGEPASISCRSSQSLLHSNGYTYLDWYLQKPGQSPQLLIYSGSHRASGVPDRFSGSVSGTDFTLRISRVEAEDVGVYYCMQGLQSPFTFGPGTKVDIKR
notes: PH1 Fab variant
B5: 10E10 (Fab, V domains shown)
VH: QVQLVQSGGGLVQPGGSLRLSCAASGFTFRSNAMGWVRQAPGKGLEWVSGISGSGGSTYYADSVKGRFTISRDNSKNTLYLQMNSLRAEDTAVYYCAKHTGGGVWNPIDYWGQGTLVTVSS
VL: EIVLTQSPLSLPVTPGEPASISCRSSQSLLHSNGYTYLDWYLQKPGQSPQLLIYSGSHRASGVPDRFSGSVSGTDFTLRISRVEAEDVGVYYCMQGLQSPFTFGPGTKVDIKR
notes: PH1 Fab variant
B6: 11B9 (Fab, V domains shown)
VH: QVQLVQSGGGLVQPGGSLRLSCAASGFTFRSNAMGWVRQAPGKGLEWVSGISGSGGSTYYADSVKGRFTISRDNSKNTLYLQMNSLRAEDTAVYYCARHTGGGVWDPINYWGQGTLVTVSS
VL: EIVLTQSPLSLPVTPGEPASISCRSSQSLLHSNGYTYLDWYLQKPGQSPQLLIYSGSHRASGVPDRFSGSVSGTDFTLRISRVEAEDVGVYYCMQGLQSPFTFGPGTKVDIKR
notes: PH1 Fab variant
B7: 11G9 (Fab, V domains shown)
VH: QVQLVQSGGGLVQPGGSLRLSCAASGFTFRSNAMGWVRQAPGKGLEWVSGISGSGGSTYYADSVKGRFTISRDNSKNTLYLQMNSLRAEDTAVYYCAKHTGGGVWDPIGYWGQGTLVTVSS
VL: EIVLTQSPLSLPVTPGEPASISCRSSQSLLHSNGYTYLDWYLQKPGQSPQLLIYSGSHRASGVPDRFSGSVSGTDFTLRISRVEAEDVGVYYCMQGLQSPFTFGPGTKVDIKR
notes: PH1 Fab variant
B8: 10B3 (Fab, V domains shown)
VH: QVQLVQSGGGLVQPGGSLRLSCAASGFTFRSNAMGWVRQAPGKGLEWVSGISGSGGSTYYADSVKGRFTISRDNSKNTLYLQMNSLRAEDTAVYYCAKHTGGGVWDPIGYWGQGTLVTVSS
VL: EIVLTQSPLSLPVTPGEPASISCRSSQSLLHSNGYTYLDWYLQKPGQSPQLLIYSGSHRASGVPDRFSGSVSGTDFTLRISRVEAEDVGVYYCMQGLQSPFTFGPGTKVDIKR
notes: PH1 Fab variant
B9: 11F9 (Fab, V domains shown)
VH: QVQLVQSGGGLVQPGGSLRLSCAASGFTFRSNAMGWVRQAPGKGLEWVSGISGSGGSTYYADSVKGRFTISRDNSKNTLYLQMNSLRAEDTAVYYCTKHTGGGVWDPINYWGQGTLVTVSS
VL: EIVLTQSPLSLPVTPGEPASISCRSSQSLLHSNGYTYLDWYLQKPGQSPQLLIYSGSHRASGVPDRFSGSVSGTDFTLRISRVEAEDVGVYYCMQGLQSPFTFGPGTKVDIKR
notes: PH1 Fab variant
B10: 10F8 (Fab, V domains shown)
VH: QVQLVQSGGGLVQPGGSLRLSCAASGFTFRSNAMGWVRQAPGKGLEWVSGISGSGGSTYYADSVKGRFTISRDNSKNTLYLQMNSLRAEDTAVYYCAKHTGGGVWDPMHYWGQGTLVTVSS
VL: EIVLTQSPLSLPVTPGEPASISCRSSQSLLHSNGYTYLDWYLQKPGQSPQLLIYSGSHRASGVPDRFSGSVSGTDFTLRISRVEAEDVGVYYCMQGLQSPFTFGPGTKVDIKR
notes: PH1 Fab variant
B11: 11F4 (Fab, V domains shown)
VH: QVQLVQSGGGLVQPGGSLRLSCAASGFTFRSNAMGWVRQAPGKGLEWVSGISGSGGSTYYADSVKGRFTISRDNSKNTLYLQMNSLRAEDTAVYYCAKHTGGGVWDPISSWGQGTLVTVSS
VL: EIVLTQSPLSLPVTPGEPASISCRSSQSLLHSNGYTYLDWYLQKPGQSPQLLIYSGSHRASGVPDRFSGSVSGTDFTLRISRVEAEDVGVYYCMQGLQSPFTFGPGTKVDIKR
notes: PH1 Fab variant
B12: 10F9 (Fab, V domains shown)
VH: QVQLVQSGGGLVQPGGSLRLSCAASGFTFRSNAMGWVRQAPGKGLEWVSGISGSGGSTYYADSVKGRFTISRDNSKNTLYLQMNSLRAEDTAVYYCAKHTGGGVWNPIGHWGQGTLVTVSS
VL: EIVLTQSPLSLPVTPGEPASISCRSSQSLLHSNGYTYLDWYLQKPGQSPQLLIYSGSHRASGVPDRFSGSVSGTDFTLRISRVEAEDVGVYYCMQGLQSPFTFGPGTKVDIKR
notes: PH1 Fab variant
B13: 11F7 (Fab, V domains shown)
VH: QVQLVQSGGGLVQPGGSLRLSCAASGFTFRSNAMGWVRQAPGKGLEWVSGISGSGGSTYYADSVKGRFTISRDNSKNTLYLQMNSLRAEDTAVYYCAKHTGVGVWDPMNYWGQGTLVTVSS
VL: EIVLTQSPLSLPVTPGEPASISCRSSQSLLHSNGYTYLDWYLQKPGQSPQLLIYSGSHRASGVPDRFSGSVSGTDFTLRISRVEAEDVGVYYCMQGLQSPFTFGPGTKVDIKR
notes: PH1 Fab variant
B14: 11D4 (Fab, V domains shown)
VH: QVQLVQSGGGLVQPGGSLRLSCAASGFTFRSNAMGWVRQAPGKGLEWVSGISGSGGSTYYADSVKGRFTISRDNSKNTLYLQMNSLRAEDTAVYYCAKHTGGGVWDPMASWGQGTLVTVSS
VL: EIVLTQSPLSLPVTPGEPASISCRSSQSLLHSNGYTYLDWYLQKPGQSPQLLIYSGSHRASGVPDRFSGSVSGTDFTLRISRVEAEDVGVYYCMQGLQSPFTFGPGTKVDIKR
notes: PH1 Fab variant
B15: 11C1 (Fab, V domains shown)
VH: QVQLVQSGGGLVQPGGSLRLSCAASGFTFRSNAMGWVRQAPGKGLEWVSGISGSGGSTYYADSVKGRFTISRDNSKNTLYLQMNSLRAEDTAVYYCAKHTGEGVWDPIKYWGQGTLVTVSS
VL: EIVLTQSPLSLPVTPGEPASISCRSSQSLLHSNGYTYLDWYLQKPGQSPQLLIYSGSHRASGVPDRFSGSVSGTDFTLRISRVEAEDVGVYYCMQGLQSPFTFGPGTKVDIKR
notes: PH1 Fab variant
B16: 8F5 (Fab, V domains shown)
VH: QVQLVQSGGGLVQPGGSLRLSCAASGFTFRSNAMGWVRQAPGKGLEWVSGISGSGGSTYYADSVKGRFTISRDNSKNTLYLQMNSLRAEDTAVYYCAKHTGGGVWDPIAYWGQGTLVTVSS
VL: EIVLTQSPLSLPVTPGEPASISCRSSQSLLHSNGYTYLDWYLQKPGQSPQLLIYSGSHRASGVPDRFSGSVSGTDFTLRISRVEAEDVGVYYCMQGLQSPFTFGPGTKVDIKR
notes: PH1 Fab variant
B17: 11F2 (Fab, V domains shown)
VH: QVQLVQSGGGLVQPGGSLRLSCAASGFTFRSNAMGWVRQAPGKGLEWVSGISGSGGSTYYADSVKGRFTISRDNSKNTLYLQMNSLRAEDTAVYYCAIHTGAGVWDPIRYWGQGTLVTVSS
VL: EIVLTQSPLSLPVTPGEPASISCRSSQSLLHSNGYTYLDWYLQKPGQSPQLLIYSGSHRASGVPDRFSGSVSGTDFTLRISRVEAEDVGVYYCMQGLQSPFTFGPGTKVDIKR
notes: PH1 Fab variant
B18: 10C10 (Fab, V domains shown)
VH: QVQLVQSGGGLVQPGGSLRLSCAASGFTFRSNAMGWVRQAPGKGLEWVSGISGSGGSTYYADSVKGRFTISRDNSKNTLYLQMNSLRAEDTAVYYCAKHTGVGVWDPIKYWGQGTLVTVSS
VL: EIVLTQSPLSLPVTPGEPASISCRSSQSLLHSNGYTYLDWYLQKPGQSPQLLIYSGSHRASGVPDRFSGSVSGTDFTLRISRVEAEDVGVYYCMQGLQSPFTFGPGTKVDIKR
notes: PH1 Fab variant
B19: 7F3 (Fab, V domains shown)
VH: QVQLVQSGGGLVQPGGSLRLSCAASGFTFRSNAMGWVRQAPGKGLEWVSGISGSGGSTYYADSVKGRFTISRDNSKNTLYLQMNSLRAEDTAVYYCAIHTGGGVWDPIKYWGQGTLVTVSS
VL: EIVLTQSPLSLPVTPGEPASISCRSSQSLLHSNGYTYLDWYLQKPGQSPQLLIYSGSHRASGVPDRFSGSVSGTDFTLRISRVEAEDVGVYYCMQGLQSPFTFGPGTKVDIKR
notes: PH1 Fab variant; also called clone 7F3

What follows are binders tested against T1, MUC1 60-mer peptide NH2-(…)3-COOH (biotinylated in the ELISAs and selections) (assay: ELISA, soluble Fab, biotinylated MUC1 60-mer; relative signal).
T1 construct: also called biotinylated MUC1 60-mer
T1 sequence (peptide, as listed by the source): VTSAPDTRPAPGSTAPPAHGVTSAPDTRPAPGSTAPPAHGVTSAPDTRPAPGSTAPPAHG
Method: Soluble Fabs were produced as described (Roovers et al., Br. J. Cancer, 78: 1407-16 (1998)). ELISAs were performed as described by Henderikx et al. (Cancer Res., 58: 4324-4332 (1998)), except the biotinylated MUC1 60-mer was used. The selected PH1 and the affinity-matured antibodies were evaluated for affinity by surface plasmon resonance (SPR) on a BIAcore 2000 apparatus (BIAcore AB, Uppsala, Sweden). Channels of a biotin chip were coated with a MUC1 15-mer, containing the minimal PH1 epitope, PAP, (Ac-PDTRPAPGSTAPPAL-NH₂, (SEQ ID NO:40) 50 RU or 320 RU) or a 60-mer (NH₂-([…])₃-COOH (i.e., containing three copies of SEQ ID NO:8 (von Mensdorff-Pouilly et al., Tumor Biol., 19: 186-195 (1998), 50 RU) in HBS-EP buffer (Pharmacia). One surface was blocked with biotin (15 RU) and used as a negative control. The antibodies were injected in HBS-EP buffer. To minimize rebinding of the antigen binding fragments, the flow speed was 30 μl/sec. Affinity calculation was performed with the BIA-evaluation software provided by the BIAcore. The affinities of the Fabs were calculated according to a 1:1 stoichiometry at steady state.
B1: binds. B2: binds. B3: binds. B4: binds. B5: binds. B6: binds. B7: binds. B8: binds. B9: binds. B10: binds. B11: binds. B12: binds. B13: binds. B14: binds. B15: binds. B16: binds. B17: binds. B18: binds. B19: binds.
